Laboratory results: the supplement of paper PMC6755084

B1: F1*; the commonest letter at each place (parent)
chain: GAGACCGCAACTGAAAAGTTGTTATCACTTGTCGTAAGACACTTTGGATGGGTTGAAGTTCTGCACGTAGAAGCAAAAGGC
B2: minF1; a variant is named by its letters at N, in order (parent)
chain: GAGACCGCAACTGAAAAGTTGTTNNNNAANNNNGGNTNNATTTCTGCACGTAGAAGCAAAAGGC

Variants of: B1
Test: fraction ligated after 30 min (ligated reads / total reads); higher = more ligase activity
Details: with F1*sub RNA substrate (template-directed ligation), 42 °C
In short: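 Ligase ribozyme variants were made from oligo-pool templates by PCR amplification, T7 transcription and gel purification. After gel separation, ligated and unligated bands were reverse transcribed with barcoded primers and sequenced on a MiSeq, with core bases filtered at quality ≥20. The fraction ligated for each variant was the number of ligated reads divided by total reads.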

Variant | fraction ligated
GAGACCGCAACTGAAAAGTTGTTATCACTTGTCGTAAGACACTTTGGATGGGTTCAAGTTCTGCACGTAGAAGCAAAAGGC [G55C] | 0.778
GAGACCGCAACTGAAAAGTTGTTATCACTTGTCGTAAGACACTTTGGATGGGTTTTAGTTCTGCACGTAGAAGCAAAAGGC [G55T A56T] | 0.378
GAGACCGCAACTGAAAAGTTGTTATCACTTGTCGTAAGACACTTTGGATGGGTTTCAGTTCTGCACGTAGAAGCAAAAGGC [G55T A56C] | 0.014
GAGACCGCAACTGAAAAGTTGTTATCACTTGTCGTAAGACACTTTGGATGGGTTTGAGTTCTGCACGTAGAAGCAAAAGGC [G55T A56G] | 0.806
GAGACCGCAACTGAAAAGTTGTTATCACTTGTCGTAAGACACTTTGGATGGGTTGGAGTTCTGCACGTAGAAGCAAAAGGC [A56G] | 0.781
GAGACCGCAACTGAAAAGTTGTTATCACTTGTCGTAAGACACTTTGGATGGGTTGTAGTTCTGCACGTAGAAGCAAAAGGC [A56T] | 0.803
GAGACCGCAACTGAAAAGTTGTTATCACTTGTCGTAAGACACTTTGGATGGGTTGCAGTTCTGCACGTAGAAGCAAAAGGC [A56C] | 0.767
GAGACCGCAACTGAAAAGTTGTTATCACTTGTCGTAAGACACTTTGGATGGGTTGACGTTCTGCACGTAGAAGCAAAAGGC [A57C] | 0.814
GAGACCGCAACTGAAAAGTTGTTATCACTTGTCGTAAGACACTTTGGATGGGTTGAGGTTCTGCACGTAGAAGCAAAAGGC [A57G] | 0.822
GAGACCGCAACTGAAAAGTTGTTATCACTTGTCGTAAGACACTTTGGATGGGTTGATGTTCTGCACGTAGAAGCAAAAGGC [A57T] | 0.844
GAGACCGCAACTGAAAAGTTGTTATCACTTGTCGTAAGACACTTTGGATGGGTTTGGGTTCTGCACGTAGAAGCAAAAGGC [G55T A56G A57G] | 0.0371
GAGACCGCAACTGAAAAGTTGTTATCACTTGTCGTAAGACACTTTGGATGGGTTTGCGTTCTGCACGTAGAAGCAAAAGGC [G55T A56G A57C] | 0.0609
GAGACCGCAACTGAAAAGTTGTTATCACTTGTCGTAAGACACTTTGGATGGGTTTGTGTTCTGCACGTAGAAGCAAAAGGC [G55T A56G A57T] | 0.0243
GAGACCGCAACTGAAAAGTTGTTATCACTTGTCGTAAGACACTTTGGATGGGTTGTCGTTCTGCACGTAGAAGCAAAAGGC [A56T A57C] | 0.0772
GAGACCGCAACTGAAAAGTTGTTATCACTTGTCGTAAGACACTTTGGATGGGTTGTGGTTCTGCACGTAGAAGCAAAAGGC [A56T A57G] | 0.217
GAGACCGCAACTGAAAAGTTGTTATCACTTGTCGTAAGACACTTTGGATGGGTTGTTGTTCTGCACGTAGAAGCAAAAGGC [A56T A57T] | 0.454
GAGACCGCAACTGAAAAGTTGTTATCACTTGTCGTAAGACACTTTGGATGGGTTAACGTTCTGCACGTAGAAGCAAAAGGC [G55A A57C] | 0.786
GAGACCGCAACTGAAAAGTTGTTATCACTTGTCGTAAGACACTTTGGATGGGTTAAGGTTCTGCACGTAGAAGCAAAAGGC [G55A A57G] | 0.833
GAGACCGCAACTGAAAAGTTGTTATCACTTGTCGTAAGACACTTTGGATGGGTTAATGTTCTGCACGTAGAAGCAAAAGGC [G55A A57T] | 0.801

Variants of: B2
Test: fraction ligated after 30 min (ligated reads / total reads); higher = more ligase activity
Details: with F1*subA RNA substrate (template-directed ligation), 42 °C
Procedure: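 Chip-synthesised pool of minF1 ligase ribozyme variants (single and double substitutions, single to quadruple deletions, bulge and P2 designed variants) was transcribed with T7 and reacted as a pool with excess substrate F1*subA for 30 min at 42 C in 50 mM EPPS pH 8.5, 25 mM MgCl2. Ligated and unligated RNAs were separated by PAGE, barcoded by RT and deep sequenced; fraction ligated = ligated reads / total reads, relative activity = FL / FL of wild-type minF1 (0.76); sequencing FL correlated with PAGE (R2 = 0.98). Sequences are the DNA template of the ribozyme.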

Variant | fraction ligated
GAGACCGCAACTGAAAAGTTGTTAAAATGGATGGGTTGAATTTCTGCACGTAGAAGCAAAAGGC [AAAAGATGTGA A28T A29G] | 0.00466
GAGACCGCAACTGAAAAGTTGTACAAATGGATGGGTTGAATTTCTGCACGTAGAAGCAAAAGGC [CAAAGATGTGA T23A A28T A29G] | 0.0035
GAGACCGCAACTGAAAAGTTGTTTAAAAGGATGGGTTGAATTTCTGCACGTAGAAGCAAAAGGC [TAAAGATGTGA A29G] | 0.00158
GAGACCGCAACTGAAAAGTTGTTTAAAATGATGGGTTGAATTTCTGCACGTAGAAGCAAAAGGC [TAAAGATGTGA A29T] | 0.00224
GAGACCGCAACTGAAAAGTTGTTAAAAAGGATGGGTTGAATTTCTGCACGTAGAAGCAAAAGGC [AAAAGATGTGA A29G] | 0.00274
GAGACCGCAACTGAAAAGTTGTTAAAAATGATGGGTTGAATTTCTGCACGTAGAAGCAAAAGGC [AAAAGATGTGA A29T] | 0.00419
GAGACCGCAACTGAAAAGTTGTACAAAAGGATGGGTTGAATTTCTGCACGTAGAAGCAAAAGGC [CAAAGATGTGA T23A A29G] | 0.00234
GAGACCGCAACTGAAAAGTTGTACAAAATGATGGGTTGAATTTCTGCACGTAGAAGCAAAAGGC [CAAAGATGTGA T23A A29T] | 0.00168
GAGACCGCAACTGAAAAGTTGTTCAAATGGATGGGTTGAATTTCTGCACGTAGAAGCAAAAGGC [CAAAGATGTGA A28T A29G] | 0.00352
GAGACCGCAACTGAAAAGTTGTAGAAATGGATGGGTTGAATTTCTGCACGTAGAAGCAAAAGGC [GAAAGATGTGA T23A A28T A29G] | 0.00194
GAGACCGCAACTGAAAAGTTGTTTAAATGGATGGGTTGAATTTCTGCACGTAGAAGCAAAAGGC [TAAAGATGTGA A28T A29G] | 0.00323
GAGACCGCAACTGAAAAGTTGTAAAAATGGATGGGTTGAATTTCTGCACGTAGAAGCAAAAGGC [AAAAGATGTGA T23A A28T A29G] | 0.00631
GAGACCGCAACTGAAAAGTTGTTGAAATGGATGGGTTGAATTTCTGCACGTAGAAGCAAAAGGC [GAAAGATGTGA A28T A29G] | 0.00247
GAGACCGCAACTGAAAAGTTGTATAAAAGGATGGGTTGAATTTCTGCACGTAGAAGCAAAAGGC [TAAAGATGTGA T23A A29G] | 0.00271
GAGACCGCAACTGAAAAGTTGTTCAAAATGATGGGTTGAATTTCTGCACGTAGAAGCAAAAGGC [CAAAGATGTGA A29T] | 0.00371
GAGACCGCAACTGAAAAGTTGTTCAAAAGGATGGGTTGAATTTCTGCACGTAGAAGCAAAAGGC [CAAAGATGTGA A29G] | 0.00439
GAGACCGCAACTGAAAAGTTGTATAAATGGATGGGTTGAATTTCTGCACGTAGAAGCAAAAGGC [TAAAGATGTGA T23A A28T A29G] | 0.00461
